Measured values reported in PMC4067145.

How the values were obtained:
U2B″;U2A′ LRR domain = U2B″;U2A′ LRR domain (human;human, UniProt P08579;P09661 1-225;1-180, |); assay: fluorescence titration
U1A [1] = target: T1, U1A (human, UniProt P09012 1-282); assay: fluorescence titration
U2B″ [2] = target: T2, U2B″ (human, UniProt P08579 1-225); assay: fluorescence titration
U1A;U2A′ LRR domain [3] = target: T3, U1A;U2A′ LRR domain (human;human, UniProt P09012;P09661 1-282;1-180, |); assay: fluorescence titration
T3 sequence (P09012 whole entry, chain 1 of 2, the tested form may be a part): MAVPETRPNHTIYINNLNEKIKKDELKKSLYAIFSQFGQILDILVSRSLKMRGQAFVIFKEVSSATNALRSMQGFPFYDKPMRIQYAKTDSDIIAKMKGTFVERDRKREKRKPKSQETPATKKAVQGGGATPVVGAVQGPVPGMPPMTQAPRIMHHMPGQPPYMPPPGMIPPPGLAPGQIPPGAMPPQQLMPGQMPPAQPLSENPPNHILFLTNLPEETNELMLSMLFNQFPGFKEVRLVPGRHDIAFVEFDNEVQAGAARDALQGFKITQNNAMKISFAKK
T3 sequence (P09661 1-180, chain 2 of 2): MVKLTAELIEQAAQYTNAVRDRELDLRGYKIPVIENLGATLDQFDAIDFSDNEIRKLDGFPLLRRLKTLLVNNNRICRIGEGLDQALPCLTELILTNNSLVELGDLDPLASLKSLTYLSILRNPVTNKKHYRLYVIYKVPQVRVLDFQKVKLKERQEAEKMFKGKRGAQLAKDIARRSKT

U1A;U2A′ LRR domain [4] = target: T3, U1A;U2A′ LRR domain; assay: fluorescence titration; remark: listed apart in the source
U2B″ [5] = target: T2, U2B″; assay: ITC
U1A;U2A′ LRR domain [6] = target: T3, U1A;U2A′ LRR domain; assay: ITC
U1A [7] = target: T1, U1A; assay: ITC
U1A [8] = target: T1, U1A; assay: ITC; remark: listed apart in the source
U2B″ [9] = target: T2, U2B″; assay: ITC; remark: listed apart in the source

T2 sequence (P08579 whole entry, the tested form may be a part): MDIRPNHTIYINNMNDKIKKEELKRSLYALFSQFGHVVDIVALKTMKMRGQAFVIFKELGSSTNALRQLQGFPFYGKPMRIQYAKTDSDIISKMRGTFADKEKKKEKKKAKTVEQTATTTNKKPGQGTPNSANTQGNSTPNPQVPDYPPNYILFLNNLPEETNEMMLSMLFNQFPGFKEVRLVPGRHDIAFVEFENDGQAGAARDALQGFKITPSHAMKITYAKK
T1 sequence (P09012 whole entry): as the sequence (P09012 whole entry, chain 1 of 2, the tested form may be a part) above
U2B″;U2A′ LRR domain, sequence (P08579 whole entry, chain 1 of 2, the tested form may be a part): as the sequence (P08579 whole entry, the tested form may be a part) above
U2B″;U2A′ LRR domain, sequence (P09661 1-180, chain 2 of 2): as the sequence (P09661 1-180, chain 2 of 2) above

Binder | binding signal (U2B″;U2A′ LRR domain) | Kd (U1A [1]) | Kd (U2B″ [2]) | binding signal (U1A;U2A′ LRR domain [3]) | binding signal (U1A;U2A′ LRR domain [4]) | Kd (U2B″ [5]) | binding signal (U1A;U2A′ LRR domain [6]) | Kd (U1A [7]) | Kd (U1A [8]) | Kd (U2B″ [9])
GGGCCCGGCAUUGCACCUCGCCGGGUCC (structured_RNA) [FAM-SLII (U1 snRNA stemloop II)] | 15.8 ± 1.6 alpha (linkage parameter, fold) | 0.33 nM | 15 nM | 7.3 ± 1.3 alpha (linkage parameter, fold) |  |  |  |  |  | 
GGGCCCGGUAUUGCAGUACCGCCGGGUCC (structured_RNA) [FAM-SLIV (U2 snRNA stemloop IV)] | 139 ± 49 alpha (linkage parameter, fold) | 58 nM | 17 nM |  | 89 ± 11 alpha (linkage parameter, fold) |  |  |  |  | 
GGGCACAUUGCACCUCGUGUCCAGACUUCGGUC (structured_RNA) [SLII ITC construct] |  |  |  |  |  | 92 nM | 1.4 ± 7.9 alpha (linkage parameter, fold) | < 7 nM |  | 
GGAGUUUUCCAGGACGUAUUGCAGUACCUCGUCCUGG (structured_RNA) [SLIV ITC construct] |  |  |  |  |  |  | 34 ± 17 alpha (linkage parameter, fold) |  | 100 nM | 2.3 nM
